We go through 1 substance from paper PMC4175982.

This test addresses GrpU protein from Clostridiales bacterium 1_7_47FAA (Clostridiales bacterium 1_7_47FAA). Kind of test: crystal structure.

The term stoichiometry N denotes the number of molecules, sites or subunits per partner or assembly. The substance “GrpU protein from Clostridiales bacterium 1_7_47FAA (natural protein)” gave a stoichiometry N of 6.
